Positions count from the first letter of the chain named. In names and notes the source's numbering stands.
B1: N-terminal hexahistidine tagged nosiheptide resistance methyltransferase (His-NHR) (enzyme, Streptomyces actuosus, UniProt P52391 1-274, looked up)
chain: MTEPAIITNASDPAVQRIIDVTKHSRASIKTTLIEDTEPLMECIRAGVQFIEVYGSSGTPLDPALLDLCRQREIPVRLIDVSIVNQLFKAERKAKVFGIARVPRPARLADIAERGGDVVVLDGVKIVGNIGAIVRTSLALGAAGIVLVDSDLATIADRRLLRASRGYVFSLPVVLADREEAVSFLRDNDIALMVLDTDGDLGVKDLGDRADRMALVFGSEKGGPSGLFQEASAGTVSIPMLSSTESLNVSVSVGIALHERSARNFAVRRAAAQA
notes: nosiheptide resistance methyltransferase (NHR), Streptomyces actuosus; wild type; Homodimer when alone; in the heterodimer with Trx-NHR one chain of each construct; also called NHR(S); short, S; source: over expressed from pET-28a-NHR, purified (Ni-NTA, gel filtration); not shown: His6, N-terminal, kept
B2: thioredoxin tagged nosiheptide resistance methyltransferase (Trx-NHR) (enzyme, Streptomyces actuosus, UniProt P52391 1-274, looked up)
chain: B1 chain
notes: nosiheptide resistance methyltransferase (NHR), Streptomyces actuosus; wild type; Homodimer when alone; in the heterodimer with His-NHR one chain of each construct; Named Trx-His-NHR in the methods; also called Trx-His-NHR; NHR(L); source: over expressed from pET-32M-NHR, purified (Ni-NTA, gel filtration); not shown: thioredoxin, N-terminal, kept
B3: HA-His-NHR-R135A (enzyme, Streptomyces actuosus, UniProt P52391 1-274, looked up)
chain: B1 chain with R135A
notes: nosiheptide resistance methyltransferase (NHR), Streptomyces actuosus; Homodimer when alone; in the heterodimer with Flag-Trx-His-NHR one chain of each construct; also called HA-NHR-R135A; HA-R135A-NHR; source: site-directed mutagenesis of His-NHR, HA tag added by PCR; purified (Ni-NTA, gel filtration); not shown: His6, N-terminal, kept
B4: Flag-Trx-His-NHR (enzyme, Streptomyces actuosus, UniProt P52391 1-274, looked up)
chain: B1 chain
notes: nosiheptide resistance methyltransferase (NHR), Streptomyces actuosus; wild type; Homodimer when alone; in the heterodimer with HA-His-NHR-R135A one chain of each construct; also called Flag-NHR; Flag-Trx-NHR; source: Flag tag added to Trx-His-NHR by PCR; purified (Ni-NTA, gel filtration); not shown: thioredoxin, N-terminal, kept

Assays:
[1] = target: the molecule itself; assay: native gel or EMSA; differently tagged (short and long) NHR proteins mixed at 4°C overnight, then incubated with 58 nt or 29 nt RNA (6-10 μM RNA, 2-10 μM protein) for 1 hour at 4°C in 25 mM Hepes-KOH, 25 mM NH4Cl, 5 mM MgCl2, 5 mM DTT, pH 8.0; 6% polyacrylamide native gel, SYBR Gold; dimers seen as RNA-protein complexes
HA-His-NHR-R135A = target: B3; assay: as above; conditions: both partners purified

B1
stoichiometry N [1]: 2

B2
stoichiometry N [1]: 2

B3
stoichiometry N [1]: 2

B4
stoichiometry N [1]: 2 | binding result (HA-His-NHR-R135A): binds

Reference: publication PMC4409310, “Substrate Recognition and Modification by the Nosiheptide Resistance Methyltransferase” (PLoS ONE, 2015)
